A word on the EC50: it is the concentration that produces a half-maximal response. For orientation: Kd means the equilibrium constant for the complex coming apart.

Here are results for four molecules from patent US20250340655A1, “EPHA2-TARGETING ANTIBODIES AND THEIR APPLICATIONS IN CANCER TREATMENT” (TAIPEI MEDICAL UNIVERSITY, priority 2022, published 2025).

Ends that are not written are not given here. BSA = bovine serum albumin carrier conjugated to the peptide

One assay has as its system BxPc-3 tumor. In words: BxPc-3 tumor xenograft model (IgG hSD5, gemcitabine). Particulars: BxPc-3 xenograft, iv. The class given is in vivo, mouse. As to the method:
(§1) The freshly prepared BxPc-3 and Mia PaCa-2 cancer cells were harvested during the log growth phase and resuspended in PBS for tumor implantation. Each NOD/SCID mouse was subcutaneously inoculated with cancer cells (5×10^6 to BxPc-3 and 1×10^7 to Mia PaCa-2) for tumor formation. The tumor size was measured twice weekly, and the volume was calculated as follows: V=0.5lw^2, where l=the length and w=the width. When the tumor size was approximately 100 mm3, animals were divided into groups that received (a) vehicle alone through intravenous injection (i.v.) once weekly (qwk), (b) control human IgG1 at 20 mg/kg through i.v. qwk, (c) and (d) hSD5 IgG1 at 2 or 20 mg/kg through i.v. qwk, (e) and (f) gemcitabine at 20 or 100 mg/kg through i.v. twice weekly (biw), or (g) hSD5 IgG1 at 2 mg/kg through i.v. qwk combined with gemcitabine at 20 mg/kg through i.v. biw. At the end of the experiment, the antitumor effects were quantified by dividing the tumor volumes in the treatment groups by those in the control groups and multiplying them by 100 to represent tumor growth inhibition (TGI; %). The mice were also examined frequently for overt signs of adverse drug-related side effects.
(§2) The pancreatic tissue microarray slide (US Biomax, PA483e) was used to detect and analyze the EphA2 expression of clinical samples. In the xenograft animal model, the excised BxPc-3 and Mia PaCa-2 tumors were fixed in formalin, embedded in paraffin, and sliced for immunohistochemical staining (IHC). Commercial antibodies (Cell signaling, Dako; Agilent Technologies; and Abcam) were used for staining the EphA2 molecule, cell proliferation marker Ki-67, and apoptosis marker cleaved caspase 3. The effects of staining were observed using a Zeiss Axioskop-2 microscope (Carl Zeiss).
(§3) Administration of IgG hSD5 (20 mg/kg, iv, qwk, indicated as blue filled inverted triangles) and Gemcitabine (100 mg/kg, iv, biw, indicated as orange filled squares) were used to test the inhibition effect on BxPc-3 tumor growth, n=6, TGI denotes Tumor growth inhibition. (FIG. 7A) Administration of IgG hSD5 (2 mg/kg, iv, qwk, indicated by solid black triangles), Gemcitabine (20 mg/kg, iv, biw, indicated by black open squares), and the experimental group that combined IgG and Gemcitabine treatment simultaneously (indicated by solid red diamonds) were used to teat the growth inhibitory effect of BxPc-3 on the tumor. (FIG. 7B) During treatments, the weight changes of each mouse group were tracked. (FIG. 7C) The expression levels of EphA2, cell proliferation marker Ki67, and apoptosis-related marker cleaved caspase3 in the excised tumor groups were analyzed by IHC staining. (FIG. 7D)

The test system of the next assay is Mia PaCa-2 tumor. In words: Mia PaCa-2 tumor xenograft model (IgG hSD5, gemcitabine). The class given is in vivo, mouse. As to conditions: Mia PaCa-2 xenograft. As to the method: as §1, §2
as §3, with “Mia PaCa-2 xenograft mice was also used to determine the inhibitory effect of IgG hSD5 on in vivo tumor growth. Administration of” for “Administration of”, “inhibition. (FIG. 8A) Administration of” for “inhibition. (FIG. 7A) Administration of”, “tumor. (FIG. 8B) During treatments,” for “tumor. (FIG. 7B) During treatments,”, “tracked. (FIG. 8C) The expression” for “tracked. (FIG. 7C) The expression”, “staining. (FIG. 8D)” for “staining. (FIG. 7D)”

Assay [1] addresses T1, recombinant EphA2 protein (UniProt P29317 24-537, limits assumed).
T1 construct: Coated on ELISA plates, run on Native-PAGE and used in biolayer interferometry
In words: ELISA, serially diluted scFv on coated recombinant EphA2. (In general: In an ELISA, binding on a coated surface is turned into a signal by an enzyme label.)
Protocol: The recombinant EphA2 protein (0.5 ug/well) was coated onto the wells of the microtiter plate at 4° C. overnight. The wells were blocked with 5% skim milk, and scFv or phage was then added to the wells at room temperature for 1 h. After the wells were washed with PBST, the bound scFv or phage was then detected and developed using horseradish peroxidase (HRP)-conjugated goat anti-chicken light chain antibodies (Bethyl Laboratories) or HRP-conjugated anti-M13 antibodies (GE Healthcare Life Science). Finally, the substrate 3,5,5-tetramethubezidine dihydrochloride (TMB) was added for signal development. The reaction was stopped by adding 1 N HCl, and absorbance was measured by determining optical density (OD) at 450 nm.
Four representative scFvs were serially diluted to test the percentage of binding to EphA2 molecules. (FIG. 3C) After gene sequencing, we serially diluted the four isolated representative scFvs to test the binding reaction to EphA2.

Another assay deals with BxPc-3 cells. As to the kind of experiment: Antibody internalization (endocytosis) assay. The assay is classed as cell-based, human. Particulars: BxPc-3, 1 h, 37° C. vs 4° C. (FIG. 6B). As to the method:
BxPc-3 cells were seeded on cover glasses placed in the wells of a 6-well culture plate. The BxPc-3 seeded glass slides were incubated with ephrin A1-Fc (Sino Biological) or IgG hSD5 for 1 h at 37° C. or 4° C. After washing with PBS, the cells were fixed with 100% ice methanol for 10 min. Next, the cells were stained with an FITC-conjugated anti-human Fc antibody and were subsequently mounted with ProLong Diamond Antifade Mountant comprising 4′,6-diamidino-2-phenylindole for nuclear counterstaining (Invitrogen). The cells were imaged using a confocal microscope (Leica Microsystems).

Assay [2] deals with T1, recombinant EphA2 protein. As to the kind of experiment: biolayer interferometry. (In BLI a coated tip is dipped into the sample, and binding shifts an interference pattern.)
The target of assay [3] is T2, EphA2pep_P1 (BSA-CGGGWDLMQNIMNDMPIYMYSV) (conjugated with BSA (printed BSA-C...)).
T2 peptide: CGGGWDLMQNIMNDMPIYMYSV
As to the kind of experiment: peptide ELISA on BSA-conjugated peptides. Here is the method:
(§4) These peptides were synthesized and conjugated with BSA (Kelowna International Scientific). The BSA-conjugated peptides were individually coated on a 96-well microplate at 4° C. overnight. […] Next, an HRP-conjugated anti-HA tag antibody (Cell Signaling Technology) was used to detect bound scFv. Finally, the TMB substrate was added for development, and the reaction was stopped by adding 1 N HCl. Absorbance was measured by determining the OD at 450 nm. […] Blocking with 3% BSA was performed at RT for 1 h. […] After the membrane was washed, the HRP-conjugated anti-HA tag antibody was added, and the reaction was allowed to proceed for 1 h at RT. Lastly, DAB was used to initiate the coloration reaction.
(§5) The two short peptides located on the designed activation site of EphA2 are EphA2pep_P1 and EphA2pep_P2, respectively. The long peptide formed by linking the two short peptides is EphA2pep_PIP2. NCIpep and NC2pep are two irrelevant peptides as the negative control. EphA2 ECD is a recombinant EphA2 extracellular domain protein.

Assay [4] addresses T3, EphA2pep_P2 (BSA-CGGGGGGSVSSDFEARHV).
T3 peptide: {BSA}-CGGGGGGSVSSDFEARHV
As to the kind of experiment: peptide ELISA on BSA-conjugated peptides. As to the method:
as §4, §5

The target of assay [5] is T4, EphA2pep_PIP2 (BSA-CGGGWDLMQNIMNDMPIYMYSVGGGGGGSVSSDFEARHV) (conjugated with BSA (printed BSA-C...)).
T4 construct: also called long peptide
T4 peptide: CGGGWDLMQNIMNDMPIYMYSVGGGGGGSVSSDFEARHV
In words: peptide ELISA on BSA-conjugated peptides. As to the method:
as §4, §5

T1 sequence (P29317 24-537 limits assumed): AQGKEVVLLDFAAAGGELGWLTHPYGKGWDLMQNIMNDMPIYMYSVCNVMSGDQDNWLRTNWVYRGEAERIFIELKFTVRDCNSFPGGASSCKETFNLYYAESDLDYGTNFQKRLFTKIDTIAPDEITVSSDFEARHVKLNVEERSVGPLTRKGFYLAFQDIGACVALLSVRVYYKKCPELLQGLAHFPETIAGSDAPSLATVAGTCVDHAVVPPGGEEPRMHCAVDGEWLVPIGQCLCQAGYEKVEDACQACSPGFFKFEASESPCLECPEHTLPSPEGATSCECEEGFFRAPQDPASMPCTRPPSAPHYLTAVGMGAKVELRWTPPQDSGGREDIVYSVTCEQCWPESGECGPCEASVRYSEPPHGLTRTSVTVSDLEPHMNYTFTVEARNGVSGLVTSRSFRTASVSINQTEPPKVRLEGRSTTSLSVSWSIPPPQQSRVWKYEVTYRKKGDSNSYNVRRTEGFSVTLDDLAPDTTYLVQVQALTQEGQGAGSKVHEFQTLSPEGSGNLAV

Consider `Nc1ccn([C@@H]2O[C@H](CO)[C@@H](O)C2(F)F)c(=O)n1` [Gemcitabine, reference compound], for which the “TGI (tumor growth inhibition)” value with BxPc-3 tumor (20 mg/kg, biw) is recorded as 34.6%; in the assay with BxPc-3 tumor (100 mg/kg, qwk), 59.8%; with Mia PaCa-2 tumor (20 mg/kg gemcitabine), 38.7%; in the assay on Mia PaCa-2 tumor (100 mg/kg), 73.7%.

B1: scFv SD5 (scFv)
scFv: LTQPSSVSANLGETVKIPCSGSSGSYGWYQQKSPGSAPVTLIYDNDKRPSDIPSRFFGSTSGSTSTLTITGVQAEDEAVYFCGSADSSTYVGMFGAGTTLTVLGQSSRSSTVTLDESGGGLQTPGGGLSLVCKASGFTFSDYGMGWVRQAPGKGLEFVAGISAAGSFTPYGAAVKGRATISRDNGQSTVRLQLNNLRSEDTGIYYCARIPSGYRAGEIYTWGQGTEVIVSS
notes: also called antibody SD5
Consider B1, for which the EC50 in assay [1] stood at 1.8 nM.

B2: ephrin-A1: ligand of EphA2, recombinant, used as a positive control (protein)
chain: DRHTVFWNSSNPKFRNEDYTIHVQLNDYVDIICPHYEDHSVADAAMEQYILYLVEHEEYQLCQPQSKDQVRWQCNRPSAKHGPEKLSEKFQRFTPFTLGKEFKEGHSYYYISKPIHQHEDRCLRLKVTVSGKITHSPQAHDNPQEKRLAADDPEVRVLHSIGHS
modifications: left off: a dimerising Fc or GST
notes: ligand of EphA2, recombinant, used as a positive control
Consider B2, for which the “endocytosis after targeting EphA2” value with BxPc-3 cells is recorded as “endocytosed from the cell membrane into the cytoplasm”.

B3: Humanized IgG hSD5 (antibody, V domains shown)
VH: QVQLVESGGGLVQPGGSLRLSCAASGFTFSDYGMGWVRQAPGKGLEWVAGISAAGSFTPYGAAVKGRFTISRDNSKNTVYLQMNSLRAEDTAVYYCARIPSGYRAGEIYTWGQGTLVTVSS
VL: LTQPPSVSVSPGQTVRITCSGSSGSYGWYQQKSPGQAPVTLIYDNDKRPSGIPERFSGSSSGSTSTLTISGVQAEDEADYYCGSADSSTYVGMFGGGTKLTVL
notes: also called hSD5 IgG; hSD5 IgG1
For the molecule B3, the Kd in assay [2] is 2.06 nM. For the same molecule, the binding result in assay [3], in assay [4] and in assay [5] was “binds” each time.
